This test concerns the target T1, Human IL-17A (human, UniProt Q16552 24-155).
T1 construct: also called Interleukin-17; CTLA-8
T1 sequence (looked up): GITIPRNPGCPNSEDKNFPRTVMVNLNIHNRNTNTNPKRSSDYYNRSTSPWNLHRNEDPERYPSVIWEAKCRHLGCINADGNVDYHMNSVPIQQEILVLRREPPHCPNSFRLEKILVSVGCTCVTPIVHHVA
As to the kind of experiment: fluorescence polarisation competition, 75 nM human IL-17A, 1 nM tracer BCY13196 as competitor, mean of n=3, Cheng Prusoff fit. As for the experimental part: Affinity determination by fluorescence polarization (FP) competition. Bicycles were screened to determine affinity (Ki) in a fluorescence polarisation assay where in competition with a bicycle labelled with fluorescein (referred to as tracer) with a known affinity for IL-17A. Peptides were diluted to an appropriate concentration in assay buffer (PBS+0.01% Tween20, adjusted to pH7.4 using NaOH (1M)) with a maximum of 1% DMSO, then serially diluted 1 in 2 into assay buffer. Into black 384-well low volume plates, […] of diluted peptide was added to the plate followed by […] of IL-17A at a fixed concentration (75 nM IL-17A for tracer BCY13196, 50 nM IL-17A for tracer BCY13351), then […] tracer added to a final concentration of 1 nM. Measurements were conducted on a BMG PHERAstar FS equipped with an “FP 485 520 520” optic module which excites at 485 nm and detects parallel and perpendicular emission at 520 nm. The PHERAstar FS was set at 25° C. with 200 flashes per well and a positioning delay of 0.1 second, with each well measured at 5 to 10 minute intervals for 60 minutes. The gain used for measurements was determined at the point of experiment on a tracer alone well. […]
Selected peptide ligands of the invention were tested in the above mentioned IL-17A human fluorescence polarization (FP) competition assay and the results are shown in Table 1: […]
On the technique in general: Fluorescence polarisation rises when a labelled molecule tumbles more slowly, as on binding a larger partner.

Numbered stars: 1 amine (or outer) side, 2 acyl side, 3 side chain; on linkers, the order of the positions; unused ones are H or OH. Bridge positions count the residues as written; N and C are the ends. Ends that are not written are not given here. TAST = 1,4,7-tris(vinylsulfonyl)-1,4,7-triazonane scaffold, O=S(=O)(CC[*:1])N1CCN(S(=O)(=O)CC[*:2])CCN(S(=O)(=O)CC[*:3])CC1

B1: BCY13059 (peptide)
peptide: ACPQDLELCTFLFGDCA
modifications: linker 2-9-16 via TAST
notes: Synthetic bicyclic peptide cyclised on TAST
Regarding B1, the Ki was found to be 313 nM.

One may read the Ki as the dissociation constant of the complex between target and ligand, obtained from inhibition or displacement.

These data come from patent US20230041661A1 (Bicycle, published 2023).
